# Publication PMC3907030, “Using phage display selected antibodies to dissect microbiomes for complete de novo genome sequencing of low abundance microbes” (BMC Microbiology, 2013)
# B1: α-La3 scFv (scFv, V domains shown)
# VH: QVQLQESGPGLVKPSETLSLTCAISGDSVSSNSAAWNWIRQSPSRGLEWLGRTYYRSKWYNDYAVSVKSRITINPDTSKNQFSLQLNSVTPEDTAVYYCATGDAFDMWGQGTMVTVSS
# VL: SYVLTQPPSVSGTPGQRVTISCSGSSSNIERNYVYWYQQLPGTAPKLLIYRNNQRPSGVPDRFSGSKSGTSASLAISGLRSEDEADYYCAAWDDSQNAYVFGTGTKLTVL
# notes: residues before the VL; VL of α-La3; linker between VL and VH; VH of α-La3; residues between the VH and the SV5 tag; Expressed from pEP-GFP11 with an N-terminal PelB leader and C-terminal SV5, 6x His and GFP strand 11 tags; limits of VL, linker and VH and the reading of GAHA and AS as vector-derived residues are my surmise; also called anti-La3; source: E. coli …
# B2: α-La3 scFv (scFv, V domains shown)
# VH: QVQLQESGPGLVKPSETLSLTCAISGDSVSSNSAAWNWIRQSPSRGLEWLGRTYYRSKWYNDYAVSVKSRITINPDTSKNQFSLQLNSVTPEDTAVYYCATGDAFDMWGQGTMVTVSS
# VL: SYVLTQPPSVSGTPGQRVTISCSGSSSNIERNYVYWYQQLPGTAPKLLIYRNNQRPSGVPDRFSGSKSGTSASLAISGLRSEDEADYYCAAWDDSQNAYVFGTGTKLTVL
# notes: The vector adds an N-terminal PelB leader; source: E. coli BL21 Gold, pEP-GFP11, culture supernatant; not shown: SV5, C-terminal, kept
# B3: α-La2 scFv (scFv, V domains shown)
# VH: EVQLVETGGGLVKPGGSLRLSCAASGFTLSNAWMHWVRQAPGKGLEWVGRIRRKTDGGTTDYAAPVKGRFTISRDDSKNTLYLQMNSLKTEDTAVYYCSTDDYGGNWGQGTLVTVSS
# VL: QSVLTQPASVSGSPGQSITISCTGTSSDVGSYNYVSWYQQHPGKAPKLMIYDVSNRPSGVSNRFSGSKSGNTASLTISGLQAEDEADYYCSSYTSSSTNVFGTGTQLTVL
# notes: residues before the VL; VL of α-La2; linker between VL and VH; VH of α-La2; residues between the VH and the SV5 tag; Expressed from pEP-GFP11 with an N-terminal PelB leader and C-terminal SV5, 6x His and GFP strand 11 tags; limits of VL, linker and VH and the reading of GAHA and AS as vector-derived residues are my surmise; also called anti-La2; source: E. coli …
# B4: α-La2 scFv (scFv, V domains shown)
# VH: EVQLVETGGGLVKPGGSLRLSCAASGFTLSNAWMHWVRQAPGKGLEWVGRIRRKTDGGTTDYAAPVKGRFTISRDDSKNTLYLQMNSLKTEDTAVYYCSTDDYGGNWGQGTLVTVSS
# VL: QSVLTQPASVSGSPGQSITISCTGTSSDVGSYNYVSWYQQHPGKAPKLMIYDVSNRPSGVSNRFSGSKSGNTASLTISGLQAEDEADYYCSSYTSSSTNVFGTGTQLTVL
# notes: The vector adds an N-terminal PelB leader; also called anti-La2; source: E. coli BL21 Gold, pEP-GFP11, culture supernatant; not shown: SV5, C-terminal, kept
# B5: α-La1 scFv (scFv, V domains shown)
# VH: QVQLQQSGPGLVKPSQTLSLACAISGDSVSSNSAAWNWIRQSPSRGLEWLGRIYYRSKWYNDYAVSVKSRITINPDTSKNQFSLQLNSVTPEDTAVYYCARERYGAFDIWGQGTMVTVSS
# VL: SYELTQPPSASGTPGQRVTISCSGSSSNIGSNYVYWYQQLPGTAPKLLIYRNNQRPSGVPDRFSGSKSGTSASLAITGLQAEDEADYYCQSYDSSLSGYVFGTRTKLTVL
# notes: residues before the VL; VL of α-La1; linker between VL and VH; VH of α-La1; residues between the VH and the SV5 tag; Expressed from pEP-GFP11 with an N-terminal PelB leader and C-terminal SV5, 6x His and GFP strand 11 tags; limits of VL, linker and VH and the reading of GAHA and AS as vector-derived residues are my surmise; also called anti-La1; α-La scFv; source: …
# B6: α-La4 scFv (scFv, V domains shown)
# VH: QVQLQQSGPGLVKPSQILSLTCAISGDSVSSNSADWNWIRQSPSRGLEWLGRTYYRSKWYNDYAVLVKSRITINPDTSKNQFSLQLNSVTPEDTAVYYCARGSLGAFDIWGQGTMVTVSS
# VL: QAVVTQEPSASETPGQRVTISCSGSDSNIGSNYVYWYQQVPGTAPKLVIYRNNQRPSGVPDRFSGSKSGTSASLGIRGLQSEDEADYYCAAWDDSVSGWVFGGRTKLTVL
# notes: as for B2
# B7: α-La4 scFv (scFv, V domains shown)
# VH: QVQLQQSGPGLVKPSQILSLTCAISGDSVSSNSADWNWIRQSPSRGLEWLGRTYYRSKWYNDYAVLVKSRITINPDTSKNQFSLQLNSVTPEDTAVYYCARGSLGAFDIWGQGTMVTVSS
# VL: QAVVTQEPSASETPGQRVTISCSGSDSNIGSNYVYWYQQVPGTAPKLVIYRNNQRPSGVPDRFSGSKSGTSASLGIRGLQSEDEADYYCAAWDDSVSGWVFGGRTKLTVL
# notes: residues before the VL; VL of α-La4; linker between VL and VH; VH of α-La4; residues between the VH and the SV5 tag; Expressed from pEP-GFP11 with an N-terminal PelB leader and C-terminal SV5, 6x His and GFP strand 11 tags; limits of VL, linker and VH and the reading of GAHA and AS as vector-derived residues are my surmise; also called anti-La4; source: E. coli …
# Legend:
# Conditions in all cases: partners not purified
# [1] = target: T1, L. acidophilus S-layer A protein (SlpA), on L. acidophilus ATCC 4356 cells (Lactobacillus acidophilus ATCC 4356, UniProt P35829); assay: flow cytometry on cells; scFv culture supernatant (200 μl, unpurified) incubated with 10^6-10^7 washed bacteria in PBS, 1 h at RT; detected with anti-SV5-PE; BD LSRII
# T1 construct: the flow cytometry itself was done on whole bacteria; also called S-layer protein A; Surface layer protein A; source: endogenous, on intact L. acidophilus ATCC 4356 cells
# T1 sequence (P35829 25-444): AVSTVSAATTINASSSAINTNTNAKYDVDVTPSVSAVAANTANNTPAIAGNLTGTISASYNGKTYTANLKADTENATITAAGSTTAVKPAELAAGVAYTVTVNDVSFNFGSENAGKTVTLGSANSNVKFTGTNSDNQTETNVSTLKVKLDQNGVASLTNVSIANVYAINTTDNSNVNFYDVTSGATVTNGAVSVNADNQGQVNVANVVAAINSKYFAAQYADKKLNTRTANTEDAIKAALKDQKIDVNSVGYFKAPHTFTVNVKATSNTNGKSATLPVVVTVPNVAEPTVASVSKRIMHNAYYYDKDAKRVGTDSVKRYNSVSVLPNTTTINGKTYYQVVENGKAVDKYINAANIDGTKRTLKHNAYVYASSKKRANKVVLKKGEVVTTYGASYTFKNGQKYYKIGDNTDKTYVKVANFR
# [2] = target: T2, L. acidophilus S-layer A protein (SlpA), on L. acidophilus ATCC 832 cells (Lactobacillus acidophilus ATCC 832; …, UniProt P35829); assay: as above
# T2 construct: the flow cytometry was done on whole bacteria; also called L. acidophilus st; source: endogenous, on intact L. acidophilus ATCC 832 cells
# T2 sequence (P35829 25-444): as above
# [3] = target: T3, L. acidophilus S-layer A protein (Lactobacillus acidophilus (ATCC 4356; …, UniProt P35829); assay: flow cytometry on cells; 200 μl scFv culture supernatant added to 10^6-10^7 washed bacteria in PBS, 1 h at RT; detected with anti-SV5-PE; BD LSRII
# T3 construct: S-layer A protein (SlpA) of Lactobacillus acidophilus, Uniprot P35829; band of ~45 kDa; On the bacterial surface in flow cytometry; denatured (SDS, β-mercaptoethanol, boiled) on the blot; The MS search used an L. acidophilus NCFM database; also called SlpA; S-layer protein A
# T3 sequence (P35829 25-444): as above
Binder,binding result [1],binding result [2],binding result [3]
B1,binds,binds,
B2,,,binds
B3,binds,,
B4,,,binds
B5,binds,binds,
B6,,,binds
B7,binds,binds,
